For series [1], the target named is T1, DnaA (AaDnaA, truncated) (Aquifex aeolicus, UniProt O66659 77-399).
T1 sequence: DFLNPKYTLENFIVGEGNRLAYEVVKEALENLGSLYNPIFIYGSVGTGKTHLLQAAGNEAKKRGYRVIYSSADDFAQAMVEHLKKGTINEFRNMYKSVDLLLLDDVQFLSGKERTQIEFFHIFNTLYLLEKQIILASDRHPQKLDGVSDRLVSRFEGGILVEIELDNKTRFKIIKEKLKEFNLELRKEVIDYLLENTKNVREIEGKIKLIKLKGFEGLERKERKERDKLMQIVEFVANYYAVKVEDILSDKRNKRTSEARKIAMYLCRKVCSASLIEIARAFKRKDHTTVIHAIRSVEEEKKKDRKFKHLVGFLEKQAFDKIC
As to the kind of experiment: smPIFE.

Series [2] deals with T1, DnaA (AaDnaA, truncated). As to the kind of experiment: smPIFE. The source holds these as a separate data set.
The target in series [3] is T1, DnaA (AaDnaA, truncated). Nature of the series: smFRET.
In series [4] the target is T1, DnaA (AaDnaA, truncated). As to the kind of experiment: smPIFE. This is another data set of the same source.
For series [5], the target named is T1, DnaA (AaDnaA, truncated). As to the kind of experiment: smPIFE. The source holds these as a separate data set.
Series [6] deals with T1, DnaA (AaDnaA, truncated). Nature of the series: smPIFE. The source holds these as a separate data set.

B1: pdT21 (Cy3 only, PIFE) (mixed)
DNA 1: TGGCGACGGCAGCGAGGCTTTTTTTTTTTTTTTTTTTTT
DNA 2: GCCTCGCTGCCGTCGCCA
Turning to B1, the binding result in series [1] is on record as “binds”.

B2: pdTcontrol (Cy3 only) (mixed)
DNA 1: B1 DNA 1
DNA 2: GCCTCGCTGCCGTCGCCA
modifications: C6-amino-dT at position 19
As to B2, in series [2], the binding result is on record as “binds”.

B3: pdT21 (mixed)
DNA 1: B1 DNA 1
DNA 2: GCCTCGCTGCCGTCGCCA
Turning to B3, the binding result in series [3] is on record as “binds”.

B4: pdT3+17 (Cy3 only) (mixed)
DNA 1: B1 DNA 1
DNA 2: GCCTCGCTGCCGTCGCCA
modifications: C6-amino-dT at position 22
On to B4, for which the binding result in series [4] is “binds”.

B5: 5'-OP21 (Cy3 only) (mixed)
DNA 1: TTTTTTTTTTTTTTTTTTTTTCGGAGCGACGGCAGCGGT
DNA 2: ACCGCTGCCGTCGCTCCG
For B5, the binding result in series [5] was “binds”.

B6: 3'-OP21 (Cy3 only) (mixed)
DNA 1: B5 DNA 1
DNA 2: ACCGCTGCCGTCGCTCCG
modifications: C6-amino-dT at position 21
B6: the binding result in series [6] is “binds”.
